Molecular target: Protein A (Staphylococcus aureus) (UniProt P38507)
Test: ITC

| KA, first binding site | N, first binding site | dH, first binding site | dH | stoichiometry N | Substance |
| --- | --- | --- | --- | --- | --- |
| 3.48e+06 M⁻¹ | 1.65 | -93.9 kcal/mol |  |  | Nanoparticle-conjugated trastuzumab (CS-DOX-mAb) (antibody) |
|  |  |  | -105 kcal/mol | 2.78 | Trastuzumab (Herceptin), free monoclonal antibody |
